± gives the standard deviation of the averaged measurements.
Tested on: ATP
Test: switch fluorescence ratio, 500 uM ATP over buffer (Cy3 cluster intensity, sum of 5 cycles each) (fold (ratio)); higher = stronger signal-on switching upon ATP binding; sequences stand for … in TCGTCGGCAGCGTCAGATGTGTATAAGAGACAGTTTTTTTTTTTTTTTTTTTTTTTTT…TC
Settings: aptamer strand: ATP DNA aptamer (quencher-CACCTGGGGGAGTATTGCGGAGGAAGG + anchor), 100 nM annealed; ATP concentration: 500 uM
How it was run: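 Clusters with intensities outside 100-1000 RFU were excluded. The remaining Cy3-labelled switching-strand clusters on a modified Illumina MiSeq flow-cell had been annealed to 100 nM quencher-labelled ATP aptamer and imaged in selection buffer, then after 15 min with 500 uM ATP at 22 °C, for five cycles separated by NaOH stripping and re-annealing. The fluorescence ratio, averaged per switch-domain sequence, is each cluster's summed target-cycle Cy3 intensity over its summed buffer-cycle Cy3 intensity.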
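Further: ATP exposure 15 min at 22 °C before imaging.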

| Sequence | switch fluorescence ratio |
| --- | --- |
| TCAATGTGTC | 1.03 ± 0.12 |
| TCAATGTTGG | 0.988 ± 0.025 |
| TCAATTCGGC | 0.991 ± 0.025 |
| TCAATTTCGG | 0.99882 ± 0.00079 |
| TCAATTTTTA | 1.02 ± 0.02 |
| TCACAATTTT | 1.08 ± 0.097 |
| TCACAGGATA | 1.021 ± 0.0056 |
| TCACATGTCG | 1.02 ± 0.053 |
| TCACCGACTA | 1.1952 ± 0.00033 |
| TCACCGATTC | 1.11 ± 0.024 |
| TCACCGTTCT | 1.03 ± 0.032 |
| TCACGATTTA | 0.99 ± 0.057 |
| TCACGGGGCT | 1.01 ± 0.068 |
| TCACTATAGG | 1.02 ± 0.036 |
| TCACTCCTTT | 1.01 ± 0.019 |
| TCACTGGGTC | 1.05 ± 0.023 |
| TCAGAAGGGG | 0.995 ± 0.0085 |
| TCAGAAGTAA | 1.317 ± 0.0066 |
| TCAGAATTGG | 1.01 ± 0.028 |
| TCAGACACGG | 1.04 ± 0.039 |
| TCAGAGGAG | 1.01 ± 0.025 |
| TCAGAGGGAA | 1.07 ± 0.1 |
| TCAGAGGGGC | 0.9913 ± 0.0095 |

| Sequence | switch fluorescence ratio |
| --- | --- |
| TCAGATAGCG | 0.98 ± 0.043 |
| TCAGCCAGC | 1.06 ± 0.012 |
| TCAGCGCTTT | 0.977 ± 0.032 |
| TCAGCTGGGA | 1 ± 0.026 |
| TCAGGAATGG | 1.055 ± 0.0069 |
| TCAGGACGGG | 0.992 ± 0.02 |
| TCAGGGAGGT | 0.989 ± 0.051 |
| TCAGGGGCGT | 1.0041 ± 0.00072 |
| TCAGGGGTGT | 1.08 ± 0.024 |
| TCAGGTAGCG | 1.004 ± 0.0061 |
| TCAGGTGAAT | 1.32 ± 0.065 |
| TCAGGTGGGG | 1.07 ± 0.046 |
| TCAGGTTAAG | 0.9954 ± 0.0061 |
| TCAGGTTTCC | 1.0249 ± 0.00069 |
| TCAGTACGCA | 1.57 ± 0.095 |
| TCAGTAGAGA | 0.995 ± 0.018 |
| TCAGTAGCGG | 1.07 ± 0.1 |
| TCAGTAGGGA | 2.94 ± 2.8 |
| TCAGTCATTT | 1.003 ± 0.0066 |
| TCAGTGCGGG | 0.98 ± 0.047 |
| TCAGTGGACG | 0.996 ± 0.072 |
| TCAGTGTGCT | 0.98 ± 0.014 |
| TCAGTGTGTT | 1.02 ± 0.038 |

| Sequence | switch fluorescence ratio |
| --- | --- |
| TCAGTTAAGG | 0.9866 ± 0.0039 |
| TCAGTTATGG | 1.001 ± 0.0086 |
| TCAGTTCGGC | 0.976 ± 0.037 |
| TCAGTTTAGA | 1 ± 0.011 |
| TCAGTTTTGT | 1.012 ± 0.0094 |
| TCATAAAGTT | 0.994 ± 0.034 |
| TCATACTGTG | 1.03 ± 0.014 |
| TCATAGAGG | 0.9822 ± 0.0058 |
| TCATAGGGGC | 1.04 ± 0.012 |
| TCATATTTAA | 1.015 ± 0.0043 |
| TCATCAGGGC | 1.08 ± 0.034 |
| TCATCATTCG | 0.9668 ± 0.0052 |
| TCATCGGCAT | 4.07 ± 1.3 |
| TCATCGGGGA | 1.01 ± 0.028 |
| TCATCTATAT | 1.03 ± 0.028 |
| TCATCTGTGC | 1.07 ± 0.029 |
| TCATGAACAG | 0.993 ± 0.014 |
| TCATGACGT | 0.9921 ± 0.0037 |
| TCATGAGTTG | 0.963 ± 0.018 |
| TCATGCACTG | 1.05 ± 0.035 |
| TCATGCGAAA | 1.1 ± 0.013 |
| TCATGCGGGC | 1.02 ± 0.038 |
| TCATGCTTGA | 0.974 ± 0.032 |

| Sequence | switch fluorescence ratio |
| --- | --- |
| TCATGCTTTT | 1.03 ± 0.019 |
| TCATGGCGTG | 0.988 ± 0.011 |
| TCATGGTATG | 0.997 ± 0.024 |
| TCATGTAAGT | 0.997 ± 0.02 |
| TCATGTAGGG | 0.989 ± 0.015 |
| TCATGTCGGG | 1.005 ± 0.01 |
| TCATGTCGGT | 0.979 ± 0.017 |
| TCATGTTCGT | 1.08 ± 0.15 |
| TCATGTTGAT | 1 ± 0.071 |
| TCATGTTGTG | 1.01 ± 0.02 |
| TCATGTTTCG | 1 ± 0.031 |
| TCATTATGCA | 1.04 ± 0.018 |
| TCATTATGGA | 0.989 ± 0.014 |
| TCATTCATGG | 0.977 ± 0.011 |
| TCATTGAGCG | 0.981 ± 0.04 |
| TCATTGAGGA | 0.992 ± 0.014 |
| TCATTGTGGG | 0.9799 ± 0.00084 |
| TCATTGTGGT | 0.988 ± 0.018 |
| TCATTGTTCG | 0.958 ± 0.0035 |
| TCATTTTTAC | 1.049 ± 0.0072 |
| TCCAAACCCC | 1.12 ± 0.046 |
| TCCAACATTT | 1 ± 0.046 |
| TCCAATTTTT | 0.986 ± 0.024 |

| Sequence | switch fluorescence ratio |
| --- | --- |
| TCCACATTCC | 1.57 ± 0.35 |
| TCCAGAGTGC | 1.017 ± 0.0033 |
| TCCAGCGGGG | 1.01 ± 0.047 |
| TCCAGCTGA | 2.688 ± 0.015 |
| TCCAGGGGAG | 1.13 ± 0.032 |
| TCCAGGGGTG | 1.65 ± 0.025 |
| TCCAGGGTGC | 1.93 ± 0.37 |
| TCCAGGTGAC | 4.19 ± 0.38 |
| TCCAGTATTA | 0.9945 ± 0.0042 |
| TCCAGTGGAA | 0.989 ± 0.044 |
| TCCATAATAG | 1.16 ± 0.028 |
| TCCATACCAC | 1.03 ± 0.032 |
| TCCATCAGCT | 1.1 ± 0.025 |
| TCCATGTTCT | 0.992 ± 0.034 |
| TCCATTGGTG | 1.2 ± 0.025 |
| TCCCAAAGGG | 1.63 ± 0.91 |
| TCCCAATGCT | 4.02 ± 0.55 |
| TCCCCAGGGG | 1.1 ± 0.11 |
| TCCCCCCCTT | 1.41 ± 0.58 |
| TCCCCGTTTC | 1.65 ± 0.75 |
| TCCCGAATTT | 1.02 ± 0.016 |
| TCCCGCGGCG | 1.08 ± 0.041 |
| TCCCGGGGGA | 2 ± 1.2 |

| Sequence | switch fluorescence ratio |
| --- | --- |
| TCCCGGGTCT | 0.992 ± 0.029 |
| TCCCGGGTTT | 1.1 ± 0.14 |
| TCCCGTTTTT | 1.02 ± 0.065 |
| TCCCTAAAAG | 0.9896 ± 0.0049 |
| TCCCTCTCCG | 1.27 ± 0.36 |
| TCCCTTTAGT | 1.01 ± 0.024 |
| TCCGAACTCG | 1.22 ± 0.019 |
| TCCGACTCTT | 1.53 ± 0.72 |
| TCCGACTGGT | 1.127 ± 0.0014 |
| TCCGCGGCTT | 2.12 ± 1.5 |
| TCCGCGGGTG | 1.61 ± 0.82 |
| TCCGCGTACG | 2.75 ± 0.056 |
| TCCGGAATGG | 4.16 ± 0.47 |
| TCCGGAGTTT | 2.55 ± 0.38 |
| TCCGGATATA | 1.065 ± 0.004 |
| TCCGGCAAGT | 2.17 ± 0.13 |
| TCCGGCTACC | 1.38 ± 0.039 |
| TCCGGGAAGC | 1.24 ± 0.035 |
| TCCGGGATAT | 2.23 ± 0.98 |
| TCCGGGCGGA | 1.01 ± 0.021 |
| TCCGGGGGAC | 1.52 ± 0.59 |
| TCCGGGGGGT | 1.05 ± 0.025 |
| TCCGGGGTAA | 1.37 ± 0.51 |

| Sequence | switch fluorescence ratio |
| --- | --- |
| TCCGGGGTTT | 1.02 ± 0.056 |
| TCCGGGTTTG | 1.02 ± 0.037 |
| TCCGGTTAGT | 1.04 ± 0.015 |
| TCCGTATTTT | 1.29 ± 0.41 |
| TCCGTCAATG | 1.63 ± 0.07 |
| TCCGTTGTGG | 0.991 ± 0.037 |
| TCCGTTTGTG | 1 ± 0.024 |
| TCCTAAATGT | 0.976 ± 0.048 |
| TCCTACGTTT | 1.75 ± 0.86 |
| TCCTAGCGCC | 2.02 ± 0.2 |
| TCCTAGGGGA | 1.03 ± 0.0033 |
| TCCTATAAAA | 0.987 ± 0.032 |
| TCCTCGGGGC | 1.6 ± 0.095 |
| TCCTGACGTC | 1.043 ± 0.0039 |
| TCCTGATTAT | 0.989 ± 0.011 |
| TCCTGCAAGG | 1.07 ± 0.05 |
| TCCTGGCAAA | 1.59 ± 0.6 |
| TCCTGGGGGC | 1.02 ± 0.058 |
| TCCTGGTTTT | 0.996 ± 0.046 |

— the supplement of paper PMC10126150
